Patent publication US4797472A, “New peptide derivatives” (KabiVitrum AB, priority 1986, dated 1989)
Square brackets hold non-standard residues; d marks the D form. Peptide text beside a SMILES is read from it. * marks the point of attachment. pNA = O=[N+]([O-])c1ccc(N*)cc1; Cbz = O=C(OCc1ccccc1)*

Experiments:
Thrombin bovine = biological target: T1, Thrombin bovine (Bos taurus, UniProt P00735); assay: Determination of thrombin sensitivity; assay type: biochemical; conditions: for Km: substrate 0.1-0.4 mmol/l
T1 construct: Thrombin bovine (KabiVitrum) with a constant concentration E0 =1.3 nmol/l; purchased KabiVitrum

FXa human = biological target: T2, FXa human (Homo sapiens, UniProt P00742); assay: Determination of kinetic constants for FXa human (plasma activated with RVV+CaCl2); assay type: biochemical; conditions: for Km: substrate 0.1-0.7 mmol/l, trisbuffer pH 7.0, I=0.25, polybrene, 37° C.
T2 construct: from tissue; host or cells: human plasma
T2 sequence (P00742 235-488 limits assumed): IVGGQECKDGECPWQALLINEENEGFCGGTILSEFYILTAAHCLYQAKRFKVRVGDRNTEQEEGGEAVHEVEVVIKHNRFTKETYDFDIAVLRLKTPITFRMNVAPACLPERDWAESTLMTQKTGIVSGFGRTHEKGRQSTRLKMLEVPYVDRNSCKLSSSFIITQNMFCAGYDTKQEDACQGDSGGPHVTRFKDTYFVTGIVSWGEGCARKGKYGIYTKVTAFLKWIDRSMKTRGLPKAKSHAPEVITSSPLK
T2 sequence (P00742 41-179 partner limits assumed): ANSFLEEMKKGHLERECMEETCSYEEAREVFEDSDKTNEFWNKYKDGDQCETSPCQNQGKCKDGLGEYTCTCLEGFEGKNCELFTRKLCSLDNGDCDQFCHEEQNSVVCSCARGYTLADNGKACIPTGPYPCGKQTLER
Protocol: The kinetic data for the substrates are determined by measuring the initial velocity of hydrolysis (Vi) at different substrate concentrations (Si) and at constant enzyme concentrations (Eo). The binding constant (Km) and the maximum velocity (Vmax) are obtained in known manner from Lineweaver-Burk-plot, then the Kcat is calculated (Hemker H. C. loc. cit.)
The substrates in concentrations between 0.1-0.7 mmol/l (Si) are mixed with FXa human plasma and treated according to the method as described by Aurell; L., et al. (Perspectives in Hemostatis, Ed. Fareed J. et al, New York, Pergamon Press 1981, p. 382-388).
10 μl test plasma, control or standard and 200 μl trisbuffer solution (0.05 mol/l tris, pH 7.0, I=0.25 (NaCl)), polybrene (0.1 g/l) are mixed and incubated at 37° C. for 2-4 minutes. 200 μl substrate (37° C.) in concentrations between 0.1-0.7 mmol/l dissolved in trisbuffer solution prepared according to the above are added. The mixture is well stirred and within 30 seconds 200 μl RVV+CaCl2 (20°-25° C.) are added and the mixture is stirred. The absorbance change is measured at once in a spectrophotometer at 405 nm and 37° C.

FXa bovine = FXa bovine (Bos taurus, UniProt P00743); assay: Determination of the kinetic constants for FXa bovine (chromogenic/fluorogenic substrate hydrolysis)
Sequence of FXa bovine (P00743 41-180 partner limits assumed, one chain of several): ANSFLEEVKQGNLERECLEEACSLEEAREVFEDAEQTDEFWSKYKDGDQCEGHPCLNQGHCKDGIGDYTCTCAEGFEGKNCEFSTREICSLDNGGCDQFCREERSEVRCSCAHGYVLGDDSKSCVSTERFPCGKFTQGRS
Protocol: (§1) Enzymes and substrates are mixed in a buffer solution at -37° C. The absorbance change per minute is measured at 405 nm in a spectrophotometer (pNA-substrate) or in a spectrofluorometer at excitation wavelength 380 nm and emission wavelength 440 nm (AMC-substrate).
(§2) FXa bovine (KabiVitrum) with a constant enzyme concentration
E0 =4 nmol/l (pNA-substrate)
E0 =2 nmol/l (AMC-substrate)
(§3) and the substrate in concentrations between 0.01-0.4 mmol/l (Si) are mixed in a trisbuffer solution 0.05 mol/l, pH=8.3, I=0.25 (NaCl) at 37° C. Absorbance change per minute is measured at 405 nm in a spectrophotometer for pNA-substrate and in a spectrofluorometer at emission wavelength 440 nm for AMC-substrate, respectively.

[1] = substrate: CN(CC(=O)N[C@@H](CCCNC(=N)N)C(=O)Nc1ccc([N+](=O)[O-])cc1)C(=O)[C@@H](CCCNC(=N)N)NC(=O)OCc1ccccc1; assay: purified protein, by the assay type; conditions: other: FXa bovine E0=4 nmol/l (pNA-substrate) or 2 nmol/l (AMC-substrate), substrate 0.01-0.4 mmol/l, trisbuffer 0.05 mol/l, pH 8.3, I=0.25, 37° C.
Protocol: as §1, §2
E0 =4 nmol/l (pNA-substrate)
E0 =2 nmol/l (AMC-substrate)
as §3

[2] = substrate: CS(=O)(=O)N[C@H](CCCNC(=N)N)C(=O)NCC(=O)N[C@@H](CCCNC(=N)N)C(=O)Nc1ccc([N+](=O)[O-])cc1; assay: purified protein, by the assay type; conditions: other: FXa bovine E0=4 nmol/l (pNA-substrate) or 2 nmol/l (AMC-substrate), substrate 0.01-0.4 mmol/l, trisbuffer 0.05 mol/l, pH 8.3, I=0.25, 37° C.
Protocol: as §1, §2
E0 =4 nmol/l (pNA-substrate)
E0 =2 nmol/l (AMC-substrate)
as §3

[3] = substrate: COc1ccc(COC(=O)N[C@H](CCCNC(=N)N)C(=O)NCC(=O)N[C@@H](CCCNC(=N)N)C(=O)Nc2ccc([N+](=O)[O-])cc2)cc1; assay: purified protein, by the assay type; conditions: other: FXa bovine E0=4 nmol/l (pNA-substrate) or 2 nmol/l (AMC-substrate), substrate 0.01-0.4 mmol/l, trisbuffer 0.05 mol/l, pH 8.3, I=0.25, 37° C.
Protocol: as §1, §2
E0 =4 nmol/l (pNA-substrate)
E0 =2 nmol/l (AMC-substrate)
as §3

[4] = substrate: CCS(=O)(=O)N[C@H](CCCNC(=N)N)C(=O)NCC(=O)N[C@@H](CCCNC(=N)N)C(=O)Nc1ccc([N+](=O)[O-])cc1; assay: purified protein, by the assay type; conditions: other: FXa bovine E0=4 nmol/l (pNA-substrate) or 2 nmol/l (AMC-substrate), substrate 0.01-0.4 mmol/l, trisbuffer 0.05 mol/l, pH 8.3, I=0.25, 37° C.
Protocol: as §1, §2
E0 =4 nmol/l (pNA-substrate)
E0 =2 nmol/l (AMC-substrate)
as §3

[5] = substrate: N=C(N)NCCC[C@H](NC(=O)CNC(=O)[C@@H](CCCNC(=N)N)NS(=O)(=O)c1ccc2ccccc2c1)C(=O)Nc1ccc([N+](=O)[O-])cc1; assay: purified protein, by the assay type; conditions: other: FXa bovine E0=4 nmol/l (pNA-substrate) or 2 nmol/l (AMC-substrate), substrate 0.01-0.4 mmol/l, trisbuffer 0.05 mol/l, pH 8.3, I=0.25, 37° C.
Protocol: as §1, §2
E0 =4 nmol/l (pNA-substrate)
E0 =2 nmol/l (AMC-substrate)
as §3

[6] = substrate: N=C(N)NCCC[C@H](NC(=O)CNC(=O)[C@@H](CCCNC(=N)N)NS(=O)(=O)c1ccc(Cl)cc1)C(=O)Nc1ccc([N+](=O)[O-])cc1; assay: purified protein, by the assay type; conditions: other: FXa bovine E0=4 nmol/l (pNA-substrate) or 2 nmol/l (AMC-substrate), substrate 0.01-0.4 mmol/l, trisbuffer 0.05 mol/l, pH 8.3, I=0.25, 37° C.
Protocol: as §1, §2
E0 =4 nmol/l (pNA-substrate)
E0 =2 nmol/l (AMC-substrate)
as §3

[7] = substrate: Cc1cc(=O)oc2cc(NC(=O)[C@H](CCCNC(=N)N)NC(=O)CNC(=O)[C@@H](CCCNC(=N)N)NC(=O)OCc3ccccc3)ccc12; assay: purified protein, by the assay type; conditions: other: FXa bovine E0=4 nmol/l (pNA-substrate) or 2 nmol/l (AMC-substrate), substrate 0.01-0.4 mmol/l, trisbuffer 0.05 mol/l, pH 8.3, I=0.25, 37° C.
Protocol: as §1, §2
E0 =4 nmol/l (pNA-substrate)
E0 =2 nmol/l (AMC-substrate)
as §3

[8] = substrate: N=C(N)NCCC[C@H](NC(=O)CNC(=O)[C@@H](CCCNC(=N)N)NS(=O)(=O)c1ccc([N+](=O)[O-])cc1)C(=O)Nc1ccc([N+](=O)[O-])cc1; assay: purified protein, by the assay type; conditions: other: FXa bovine E0=4 nmol/l (pNA-substrate) or 2 nmol/l (AMC-substrate), substrate 0.01-0.4 mmol/l, trisbuffer 0.05 mol/l, pH 8.3, I=0.25, 37° C.
Protocol: as §1, §2
E0 =4 nmol/l (pNA-substrate)
E0 =2 nmol/l (AMC-substrate)
as §3

[9] = substrate: Cc1ccc(S(=O)(=O)N[C@H](CCCNC(=N)N)C(=O)NCC(=O)N[C@@H](CCCNC(=N)N)C(=O)Nc2ccc([N+](=O)[O-])cc2)cc1; assay: purified protein, by the assay type; conditions: other: FXa bovine E0=4 nmol/l (pNA-substrate) or 2 nmol/l (AMC-substrate), substrate 0.01-0.4 mmol/l, trisbuffer 0.05 mol/l, pH 8.3, I=0.25, 37° C.
Protocol: as §1, §2
E0 =4 nmol/l (pNA-substrate)
E0 =2 nmol/l (AMC-substrate)
as §3

[10] = substrate: CC(C)C[C@@H](NS(C)(=O)=O)C(=O)NCC(=O)N[C@@H](CCCNC(=N)N)C(=O)Nc1ccc([N+](=O)[O-])cc1; assay: purified protein, by the assay type; conditions: other: FXa bovine E0=4 nmol/l (pNA-substrate) or 2 nmol/l (AMC-substrate), substrate 0.01-0.4 mmol/l, trisbuffer 0.05 mol/l, pH 8.3, I=0.25, 37° C.
Protocol: as §1, §2
E0 =4 nmol/l (pNA-substrate)
E0 =2 nmol/l (AMC-substrate)
as §3

[11] = substrate: N=C(N)NCCC[C@H](NC(=O)CNC(=O)[C@@H](CCCNC(=N)N)NC(=O)OCc1ccccc1)C(=O)Nc1ccc([N+](=O)[O-])cc1; assay: purified protein, by the assay type; conditions: other: FXa bovine E0=4 nmol/l (pNA-substrate) or 2 nmol/l (AMC-substrate), substrate 0.01-0.4 mmol/l, trisbuffer 0.05 mol/l, pH 8.3, I=0.25, 37° C.
Protocol: as §1, §2
E0 =4 nmol/l (pNA-substrate)
E0 =2 nmol/l (AMC-substrate)
as §3

[12] = substrate: N=C(N)NCCC[C@H](NC(=O)CNC(=O)[C@@H](CCCNC(=N)N)NS(=O)(=O)Cc1ccccc1)C(=O)Nc1ccc([N+](=O)[O-])cc1; assay: purified protein, by the assay type; conditions: other: FXa bovine E0=4 nmol/l (pNA-substrate) or 2 nmol/l (AMC-substrate), substrate 0.01-0.4 mmol/l, trisbuffer 0.05 mol/l, pH 8.3, I=0.25, 37° C.
Protocol: as §1, §2
E0 =4 nmol/l (pNA-substrate)
E0 =2 nmol/l (AMC-substrate)
as §3

[13] = substrate: N=C(N)NCCC[C@H](NC(=O)CNC(=O)[C@@H](CCCNC(=N)N)NC(=O)OCc1ccc([N+](=O)[O-])cc1)C(=O)Nc1ccc([N+](=O)[O-])cc1; assay: purified protein, by the assay type; conditions: other: FXa bovine E0=4 nmol/l (pNA-substrate) or 2 nmol/l (AMC-substrate), substrate 0.01-0.4 mmol/l, trisbuffer 0.05 mol/l, pH 8.3, I=0.25, 37° C.
Protocol: as §1, §2
E0 =4 nmol/l (pNA-substrate)
E0 =2 nmol/l (AMC-substrate)
as §3

[14] = substrate: CC(C)(C)OC(=O)N[C@H](CCCNC(=N)N)C(=O)NCC(=O)N[C@@H](CCCNC(=N)N)C(=O)Nc1ccc([N+](=O)[O-])cc1; assay: purified protein, by the assay type; conditions: other: FXa bovine E0=4 nmol/l (pNA-substrate) or 2 nmol/l (AMC-substrate), substrate 0.01-0.4 mmol/l, trisbuffer 0.05 mol/l, pH 8.3, I=0.25, 37° C.
Protocol: as §1, §2
E0 =4 nmol/l (pNA-substrate)
E0 =2 nmol/l (AMC-substrate)
as §3

[15] = substrate: CCOC(=O)N[C@H](CCCNC(=N)N)C(=O)NCC(=O)N[C@@H](CCCNC(=N)N)C(=O)Nc1ccc([N+](=O)[O-])cc1; assay: purified protein, by the assay type; conditions: other: FXa bovine E0=4 nmol/l (pNA-substrate) or 2 nmol/l (AMC-substrate), substrate 0.01-0.4 mmol/l, trisbuffer 0.05 mol/l, pH 8.3, I=0.25, 37° C.
Protocol: as §1, §2
E0 =4 nmol/l (pNA-substrate)
E0 =2 nmol/l (AMC-substrate)
as §3

[16] = substrate: COc1ccc(S(=O)(=O)N[C@H](CCCNC(=N)N)C(=O)NCC(=O)N[C@@H](CCCNC(=N)N)C(=O)Nc2ccc([N+](=O)[O-])cc2)cc1; assay: purified protein, by the assay type; conditions: other: FXa bovine E0=4 nmol/l (pNA-substrate) or 2 nmol/l (AMC-substrate), substrate 0.01-0.4 mmol/l, trisbuffer 0.05 mol/l, pH 8.3, I=0.25, 37° C.
Protocol: as §1, §2
E0 =4 nmol/l (pNA-substrate)
E0 =2 nmol/l (AMC-substrate)
as §3

[17] = substrate: N=C(N)NCCC[C@H](NC(=O)CNC(=O)[C@@H](CCCNC(=N)N)NS(=O)(=O)c1ccccc1)C(=O)Nc1ccc([N+](=O)[O-])cc1; assay: purified protein, by the assay type; conditions: other: FXa bovine E0=4 nmol/l (pNA-substrate) or 2 nmol/l (AMC-substrate), substrate 0.01-0.4 mmol/l, trisbuffer 0.05 mol/l, pH 8.3, I=0.25, 37° C.
Protocol: as §1, §2
E0 =4 nmol/l (pNA-substrate)
E0 =2 nmol/l (AMC-substrate)
as §3

[18] = Thrombin bovine E0=1.3 nmol/l, trisbuffer pH 8.3, I=0.25, 37° C.
[19] = trisbuffer pH 7.0, I=0.25, 37° C.

Molecule: Bz--Ile--Glu--(γ--OR)--Gly--ARg--pNA.HCl [Example S-2222]
- ratio for the selectivity constant FXa bovine through thrombin (Thrombin bovine; Kcat/Km FXa bovine divided by Kcat/Km thrombin bovine): 19.4
- Km (Thrombin bovine; [18]): 710 µM
- Kcat (Thrombin bovine; [18]): 13 sek^-1
- Kcat /Km (Thrombin bovine; Thrombin bovine, trisbuffer pH 8.3, I=0.25, 37° C.): 0.018 1/μmol · sek
- Km (FXa human): 1970 µM
- Vmax (FXa human; [19]): 46 µmol/L/min
- Vmax /Km (FXa human; [19]): 0.023 min⁻¹
- Km (FXa bovine; FXa bovine E0=4 nmol/l (pNA-substrate) or 2 nmol/l (AMC-substrate), substrate 0.01-0.4 mmol/l, trisbuffer 0.05 mol/l, pH 8.3, I=0.25, 37° C.): 510 µM
- Kcat (FXa bovine; FXa bovine E0=4 nmol/l (pNA-substrate) or 2 nmol/l (AMC-substrate), trisbuffer pH 8.3, I=0.25, 37° C.): 180 sek^-1
- Kcat /Km (selectivity constant) (FXa bovine; FXa bovine, trisbuffer pH 8.3, I=0.25, 37° C.): 0.35 l/μmol · sek

Molecule: CCS(=O)(=O)N[C@H](CCCNC(=N)N)C(=O)NCC(=O)N[C@@H](CCCNC(=N)N)C(=O)Nc1ccc([N+](=O)[O-])cc1 [Example 4, N^α --Ets--D--Arg--Gly--Arg--pNA.2HCl]
- Km (Thrombin bovine; [18]): 410 µM
- Km (FXa human): 340 µM

Molecule: N=C(N)NCCC[C@H](NC(=O)CNC(=O)[C@@H](CCCNC(=N)N)NC(=O)OCc1ccccc1)C(=O)Nc1ccc([N+](=O)[O-])cc1 [Example 1, N^α --Z--D--Arg--Gly--Arg--pNA.2HCl] (Cbz-[dR]-Gly-Arg-pNA)
- Km (Thrombin bovine; [18]): 130 µM
- Km (FXa human): 380 µM

B1: FXa bovine (Bos taurus) (protein)
chain: IVGGRDCAEGECPWQALLVNEENEGFCGGTILNEFYVLTAAHCLHQAKRFTVRVGDRNTEQEEGNEMAHEVEMTVKHSRFVKETYDFDIAVLRLKTPIRFRRNVAPACLPEKDWAEATLMTQKTGIVSGFGRTHEKGRLSSTLKMLEVPYVDRSTCKLSSSFTITPNMFCAGYDTQPEDACQGDSGGPHVTRFKDTYFVTGIVSWGEGCARKGKFGVYTKVSNFLKWIDKIMKARAGAAGSRGHSEAPATWTVPPPLPL
- Km [1]: 160 µM
- kcat [1]: 220 sek^-1
- kcat/Km [1]: 1.37 l/μmol · sek
- Km [2]: 170 µM
- kcat [2]: 200 sek^-1
- kcat/Km [2]: 1.17 l/μmol · sek
- Km [3]: 150 µM
- Km [4]: 190 µM
- Km [5]: 120 µM
- kcat [5]: 140 sek^-1
- kcat/Km [5]: 1.14 l/μmol · sek
- Km [6]: 270 µM
- kcat [6]: 260 sek^-1
- kcat/Km [6]: 0.96 l/μmol · sek
- Km [7]: 190 µM
- kcat [7]: 170 sek^-1
- kcat/Km [7]: 0.89 l/μmol · sek
- Km [8]: 450 µM
- kcat [8]: 245 sek^-1
- kcat/Km [8]: 0.55 l/μmol · sek
- Km [9]: 220 µM
- kcat [9]: 230 sek^-1
- kcat/Km [9]: 1.04 l/μmol · sek
- Km [10]: 290 µM
- Km [11]: 110 µM
- Km [12]: 40 µM
- Km [13]: 210 µM
- kcat [13]: 350 sek^-1
- kcat/Km [13]: 1.66 l/μmol · sek
- Km [14]: 220 µM
- kcat [14]: 180 sek^-1
- kcat/Km [14]: 0.82 l/μmol · sek
- Km [15]: 160 µM
- kcat [15]: 225 sek^-1
- kcat/Km [15]: 1.41 l/μmol · sek
- Km [16]: 200 µM
- kcat [16]: 210 sek^-1
- kcat/Km [16]: 1.05 l/μmol · sek
- Km [17]: 260 µM
- kcat [17]: 280 sek^-1
- kcat/Km [17]: 1.07 l/μmol · sek
